From US20170343530A1

Target: mutant connector conjugated with a Strep-tag to its C-terminal
Assay: cell-based or functional assay

three discrete steps of channel change (conductance assay): 32%
Substance: streptavidin (coated on nanogold) (from UniProt P22629 37-163)
